Laboratory results: PMC5145889, “Differential CCR7 Targeting in Dendritic Cells by Three Naturally Occurring CC-Chemokines” (Frontiers in Immunology, 2016)
Substitutions are numbered along the chain they refer to.

How the values were obtained:
[1] = biological target: CCR7 fused with the ProLink (PK) 1-tag (human) (UniProt P32248)
[2] = biological target: human CCR7, wild type, untagged (human) (UniProt P32248)
[3] = biological target: human CCR7, wild type, untagged (human) (UniProt P32248); remark: listed apart in the source
CCR7 Y312A (human) = CCR7 Y312A (human) (UniProt P32248)
[4] = biological target: human CCR7, wild type, untagged (human) (UniProt P32248); remark: listed apart in the source
CCR7 Y312A = biological target: T1, CCR7 Y312A (human, UniProt P32248 25-378, Y312A); assay: cell-based or functional assay
T1 sequence (looked up): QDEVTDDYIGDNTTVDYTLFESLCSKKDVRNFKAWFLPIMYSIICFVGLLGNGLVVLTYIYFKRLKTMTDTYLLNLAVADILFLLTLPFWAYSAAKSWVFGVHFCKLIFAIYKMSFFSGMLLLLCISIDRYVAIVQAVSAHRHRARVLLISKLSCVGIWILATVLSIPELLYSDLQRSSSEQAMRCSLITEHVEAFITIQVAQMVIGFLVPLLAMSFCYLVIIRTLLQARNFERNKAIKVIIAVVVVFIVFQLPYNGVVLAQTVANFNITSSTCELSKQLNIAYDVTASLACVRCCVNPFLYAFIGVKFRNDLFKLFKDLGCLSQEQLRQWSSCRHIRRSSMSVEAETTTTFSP

[5] = biological target: T2, human CCR7, wild type, untagged (human, UniProt P32248 25-378); assay: cell-based or functional assay
T2 sequence (looked up): T1 sequence (looked up) with A288Y

[6] = biological target: T3, CCR7 fused with the ProLink (PK) 1-tag (human, UniProt P32248 25-378); assay: cell-based or functional assay
T3 sequence (looked up): T1 sequence (looked up) with A288Y

CCR7 E193A = biological target: T4, CCR7 E193A (human, UniProt P32248 25-378, E193A); assay: cell-based or functional assay
T4 sequence (looked up): T1 sequence (looked up) with E169A, A288Y

CCR7 K137A = biological target: T5, CCR7 K137A (human, UniProt P32248 25-378, K137A); assay: cell-based or functional assay
T5 sequence (looked up): T1 sequence (looked up) with K113A, A288Y

[7] = biological target: T2, human CCR7, wild type, untagged; assay: cell-based or functional assay; remark: listed apart in the source
CCR7 F133A = biological target: T6, CCR7 F133A (human, UniProt P32248 25-378, F133A); assay: cell-based or functional assay
T6 sequence (looked up): T1 sequence (looked up) with F109A, A288Y

## human chemokine CCL19 (from UniProt Q99731 22-98) (ligand)
[1]
  EC50 of β-arrestin 2 recruitment to CCR7 (PathHunter, U2OS cells): 15 nM
[2]
  EC50 of β-arrestin 2-dependent CCR7 internalization (U2OS cells, 3 h): 4.1 nM
[3]
  EC50 of PI-turnover (Gαi signalling read through Gqi4myr) in HEK293 cells transfected with CCR7: 5 nM
CCR7 Y312A (human)
  EC50 of PI-turnover in HEK293 cells: 7.8 nM
[4]
  EC50 of PI-turnover in HEK293 cells (mutagenesis series, wild type): 5.4 nM

B1: human chemokine CCL21 (full-length CCL21) (ligand, UniProt O00585 24-134, looked up)
chain: SDGGAQDCCLKYSQRKIPAKVVRSYRKQEPSLGCSIPAILFLPRKRSQAELCADPKELWVQQLMQHLDKTPSPQKPAQGCRKDRGASKTGKKGKGSKGCKRTERSQTPKGP
CCR7 Y312A
  EC50 of PI-turnover in HEK293 cells: ~77 nM
[5]
  EC50 of PI-turnover (Gαi signalling read through Gqi4myr) in HEK293 cells transfected with CCR7: ~50 nM
  EC50 of PI-turnover in HEK293 cells (mutagenesis series, wild type): ~156 nM
  EC50 of β-arrestin 2-dependent CCR7 internalization (U2OS cells, 3 h): ~152 nM
[6]
  EC50 of β-arrestin 2 recruitment to CCR7 (PathHunter, U2OS cells): ~263 nM
CCR7 E193A
  percentage activation of CCR7 (G-protein signaling) relative to CCL19: 19.3 % relative to CCL19
CCR7 K137A
  percentage activation of CCR7 (G-protein signaling) relative to CCL19: 16 % relative to CCL19
[7]
  percentage activation of CCR7 (G-protein signaling) relative to CCL19: 57 % relative to CCL19
CCR7 F133A
  percentage activation of CCR7 (G-protein signaling) relative to CCL19: 28.7 % relative to CCL19

B2: tailless-CCL21 (ligand, human)
chain: SDGGAQDCCLKYSQRKIPAKVVRSYRKQEPSLGCSIPAILFLPRKRSQAELCADPKELWVQQLMQHLDKTPSPQKPAQG
[5]
  EC50 of PI-turnover (Gαi signalling read through Gqi4myr) in HEK293 cells transfected with CCR7: ~142 nM
CCR7 E193A
  percentage activation of CCR7 (G-protein signaling) relative to CCL19: 17.5 % relative to CCL19
CCR7 K137A
  percentage activation of CCR7 (G-protein signaling) relative to CCL19: 16.7 % relative to CCL19
[7]
  percentage activation of CCR7 (G-protein signaling) relative to CCL19: 42.7 % relative to CCL19
CCR7 F133A
  percentage activation of CCR7 (G-protein signaling) relative to CCL19: 27.1 % relative to CCL19
